Experimental data from the DeepSol protein solubility set.

Test: soluble on expression in E. coli; label from the status in PepcDB or PDB records

Sequence	soluble on expression in E. coli
MSLVQNNESVFFVECDSYKESPSTSPIRLDDLDGNDAVSDQGLAFDGDVGITSQARVRNPRAQIFEDSNTDVVLHLDDLDMVPLNTKFDMQMEMGSPMAMPAETPPPVEPLKTKDLAYSSLAHLPSYFFEQTHFRIDRKCLLEMSKLRRNYLTISKQDALSCPQLHSRVAGGYLKPVKEKLFGIRHFLDLEESNTVNLLQDGNYMTELFNSQINIPTFKEFREDFEWCLKIIRDRSLSRFSEKRLQYLVNKFPVFQHLHSKEEMRQSKKVPHKDFYNCRKIDLNLLLSGCFSQWQLTEFIWTKLRKEPDRVIHQAFNGSHITLSQLFKVNFEETGQFFNGLKIIDDSFLEWYKVIYLAKYHLVNDEMEIHTGSHGKQLRYYLIAKTFLEFDNYINGEYLAELLKTFLIKPQEESKYQLCQLSVDFQFYLHYDNSDVDNWWMVFANWLNHYNIFSNNIRWNIRISRIYPELYHTGKVKNFQEYLNLIFKPLFNAENYLHKSLGPILLKFLSQVSSIDLCIQDTDNYIWKNFTAVSCLPKDWTSGGDNPTISQYMYYVYVNLTKLNHIRQALHQNTFTLRSSCSPTSMNRTSQFSNTLNFTEHTEAILNNFLLACGGFLNAENLWNAPPSLVYLFYLSQIPMVVAPLNSIVDSKPTMLQEQAPTGLVLEPSKPYKKNPFMKFFEMGFKISLSSESILYNNSYTKEPIIEEYSVAASIYRLHSADLCELLRNSVITSGFSSTLKNKWLGVSLASHDYFVENTGFVDKWYDCKPNTSLEHNVPIIRRQYRSSTLAGEWRLIIAEGHHHHHH	not soluble
MSISTIRRQVKNVAYNFSDAQVKVREATSNDPWGPSTALMSEIADLTHNPMAFTEIMSIVWKRLNDSGKNWRHVYKSLVLLDFLIKCGHEKVAQQCRENVFTIETLKDFQHVEDNRDQGLNIREKAKQITSLLSDDERLKNERTRFILTRNKFKQNNPGPVGAESRRSNRHHVTDASLDPEYEDARPSTATEEEMQLQIALALSREECEKADEMRKSDDARLQMALEESQKLQDADRLATTKQGTVSSGQLTQSALDDLLSLGVGELVSGNNDQPSSSSAWGMNDPWGAPQASASLNTNDQMFANSMSNNDPWATSTVAQPVAATAPNSDPFASWDAPAPAATTPSTMPTSSSFDLLGGDLLSPTNSLSANINTNNSTNGTRKTPENFLGENSNLVNLDNLLGSGTPSTTGGNPFLTGAAPANANPFAAQQRKSPTLNEMRAAQGQAPPIPSMAPRGTLPQANPFANPF	not soluble
MAHHHHHHMQRMRRIGREEEAARLVWNHVSHCSSALLRQCIRRPNLLEEVTVALCRTMHRGISGRKDSWMGHRSLAVLRSGAALRQFTPALCIPLCAAALDCGVHFATVQQHVAEIYRWDERTERWVLNMVRLIADCHSALMRVPLNCSLHSSYMRGLVQRVAYELPTLSSTCSIEVQVPSRNKLLALWTIVNDDVANGRLRQLTCQLFLDPVARSAFKEMRLADEVDNCNSGTDGGGGSKCRVPRSTLKGLLNEEVFVSVAVNCTTEHAFAIFMNAFLSTRQARDKLRYMHLVLSEMPFESTDICPRCTTETGNCEVS	not soluble
MDRVRNLLEQIQGRLDELNKAERKVAEVILLNPQMATRLSIAALAQAAKVSEPTVNRFCRSFSVSGYPELKLQLAQSLASGAAYVSRAVEADDNPEAYTQKIFGSAIASLDSACQQLDPALVSKSVDMLIQARQIHFFGLGASAPVALDAQHKFFRFNLAVTAHADVLMQRMIASVAHTGELFVIISYTGRTRELVEVARIARANGASVLGLTAAGSPLAQASTVSLNIPLPEDTDIYMPMTSRIIQLTVLDVLATGMTLRRGVDFQPHLRKIKESLNDSRYPIEDQG	not soluble
MQYTLKQISEHLNAKVINEPSGEVIITGLTYAEQAKENDLTLIDKQEHIKLWQNSKATAAIVSKKISKELAQVNDKPLIVVNNADLAMAKILELFSVPYPEQNGIHEKAIIDPTAKIGKNVSIGPSAYIGKNVEIGDNTIIYANVCIYNDAKVGTNCIIWPSVIIRDRTIIGHFCRLCSNCSIGSDGFGYRPSEDGRTIVRIPHIGNVVIGSFVDIGSNTCINNAKYGSTIIGDYTKIDNLVQIGHNVIIGKGCMICGQAGISGSVTIGDGVIIAGNAGIKDHTNIGSDARIGGKAGVMWDVPAGESHMGYPAYKDSELAKQWIAIRKLPETMKKLKAIAKSLNIDL	not soluble
MERVAIFIDGSNLYKGLVQHLGSDYRLNFVEFITLLTAGRKLLRAYYYNAPLPPEDPAAKAHQSFLNYLKRVPYVTVRLGRLERRADGFVEKGVDIQIAVDMLRLAFVNAYDIAVLVSGDGDFAEVVRVVQDLGKQVENTTFHALSSHRLAQQADHFYPLDDFPWERLRAQVSPASPEEEA	soluble
MAHHHHHHMASLKERDTVAPAEIVAGVTASGPAGISAEELHKVLNSSEHASVVVVDVRNADEYASFHIPGSINKPFQELNFAQLADEVAAHTNHAAHMLVFVSAQSPDVDDLAAREYINEYEKSHAATPTKDSVRVLLGGLYTWSQIYSA	soluble
MAGHSHWAQIKHKKAKVDAQRGKLFSKLIREIIVATRLGGPNPEFNPRLRTAIEQAKKANMPWENIERAIKKGAGELEGEQFEEVIYEGYAPGGVAVMVLATTDNRNRTTSEVRHVFTKHGGNLGASGCVSYLFERKGYIEVPAKEVSEEELLEKAIEVGAEDVQPGEEVHIIYTVPEELYEVKENLEKLGVPIEKAQITWKPISTVQINDEETAQKVIKLLNALEELDDVQQVIANFEIPEEILQKVGLEHHHHHH	not soluble
MSLVVFPFKHEHPEVLLHNVRVAAAHPRVHEVLCIGYERDQTYEAVERAAPEISRATGTPVSVRLQERLGTLRPGKGDGMNTALRYFLEETQWERIHFYDADITSFGPDWITKAEEAADFGYGLVRHYFPRASTDAMITWMITRTGFALLWPHTELSWIEQPLGGELLMRREVAAMLYEDERVRRRSDWGIDTLYTFVTVQQGVSIYECYIPEGKAHRLYGGLDDLRTMLVECFAAIQSLQHEVVGQPAIHRQEHPHRVPVHIAERVGYDVEATLHRLMQHWTPRQVELLELFTTPVREGLRTCQRRPAFNFMDEMAWAATYHVLLEHFQPGDPDWEELLFKLWTTRVLNYTMTVALRGYDYAQQYLYRMLGRYRYQAALENGRGHPVPPRAALSTA	soluble
MGSSHHHHHHSSGLVPRGSHMSRAYDLVVLGAGSGGLEAGWNAAVTHKKKVAVVDVQATHGPPLFAALGGTCVNVGCVPKKLMVTGAQYMDLIRESGGFGWEMDRESLCPNWKTLIAAKNKVVNSINESYKSMFADTEGLSFHMGFGALQDAHTVVVRKSEDPHSDVLETLDTEYILIATGSWPTRLGVPGDEFCITSNEAFYLEDAPKRMLCVGGGYIAVEFAGIFNGYKPCGGYVDLCYRGDLILRGFDTEVRKSLTKQLGANGIRVRTNLNPTKITKNEDGSNHVHFNDGTEEDYDQVMLAIGRVPRSQALQLDKAGVRTGKNGAVQVDAYSKTSVDNIYAIGDVTNRVMLTPVAINEGAAFVETVFGGKPRATDHTKVACAVFSIPPIGTCGMTEEEAAKNYETVAVYASSFTPLMHNISGSKHKEFMIRIITNESNGEVLGVHMLGDSAPEIIQSVGICMKMGAKISDFHSTIGVHPTSAEELCSMRTPAYFYESGKRVEKLSSNL	soluble
MRDSIMQMCELCGKLTDKLYKVIIEGSEMNVCKECAKFGKSPKTYSRLGKKTIIGKGTITTNKQVKKPIKRRRDIFDTLPMLREDYGDVIREAREKRGLSIEELAKKLKMKASTLQKFERYELEPNEKEIKILEKELKISLTESIGEETSYYGGRDEDGFTLGDFIKIKK	not soluble
MSSNRQAYYKNNAKEQIGKEKRNEEVVSIRKDKREEAISKRRNINTQIEDDSETSTTPPGPFDANLLRLTVAAAQSSDPAEQLTAVQQARKMLSTDRNPPIDDLIGSGILPVLVQCLSSTDPNLQFEAAWALTNIASGTSEQTQAVVNAGAVPLFLQLLSCGNLNVCEQSVWALGNIIGDGPHFRDYCLELGILQPLLQFINPEIPIGFLRNVTWVIVNLCRCKDPAPSPAVVRTILPALSLLIHHQDTNILIDTVWALSYLTDGGNEHIQMVIEAQVVTHLVPLLGHVDVKVQTAALRAVGNIVTGTDEQTQLVLDSGVLRFMPGLLAHYKEKINKEAVWFVSNITAGNQQQVQDVFDAGIMPMIIHLLDRGDFPTQKEAAWAISNVTISGRPNQVEQMVKLGVLRPFCAMLSCTDSQIIQVVLDGINNILKMAGEAAEQVTSEIEECGGLDKIENLQNHENEDIYKLAFEIIDNFFSSDDETGNVEGAQSSAFGGDVPPVPDAPNGGWNFGK	not soluble
MAHHHHHHMNNSVTRKIEKQILEALKDKENDIDKEIRKYEILERKVYDENDEELEFIKNKRLEELKNKHKEKLTLLKKGHGTYKEVLSEKEFFEICKSSKNVCCHFYRNTTWRCQYMDKKLIDLSSKYWNINFIKINAEKSPFLCERLKIWCIPTVMLIQNGKTEHSIVGFDELGGDNFSEQTLVNVLRKWRLIETKENDD	not soluble
GSMALPKDAIPSLSECQCGICMEILVEPVTLPCNHTLCKPCFQSTVEKASLCCPFCRRRVSSWTRYHTRRNSLVNVELWTIIQKHYPRECKLRASGQESEEVADDYQPVRLLSKP	soluble
MNINPFANVSLQDYLEIVQIVDSTFPIGSFNHSFGMENYLREDTVTDDKGYEEWQEAYLASQFKYGEGLVIKLVYDAMVTDNIDQVWYYDKVLTVSTQARETRQGTKMIAKQMLRLIQRLHAIPVLDDYQSKIRKGVAFGNPAIVFALYVFNKGLGCNEAIALYGYSVISTMVQNAVRAIPLGQFAGQEIVLRSFSQLEKMTQEIQELDASYLGANTPGLELAQMKHETQVFRLFMSLEHHHHHH	not soluble
MGYLKNHWWKRWIRRRGCKLAGGPASVGKRTTLVLEERVELGHLRIVPPRLEIGAYSYVRSGTDLSLVASIGRFCSIGSDCFIGQEKHTHPSDWVSSHPFQHTGTALRYEPALSYAEIGHDVWIGHSAMVMEGVKVGTGAIIATRAVVTRDVPPYAIVAGTPAQVIRYRHPPEIIEGLLASRWWELDSAFLTGLPLDRPREFLAALEAREAPRAAYRRMTITRQGCRLD	not soluble
MSYNYVVTAQKPTAVNGCVTGHFTSAEDLNLLIAKNTRLEIYVVTAEGLRPVKEVGMYGKIAVMELFRPKGESKDLLFILTAKYNACILEYKQSGESIDIITRAHGNVQDRIGRPSETGIIGIIDPECRMIGLRLYDGLFKVIPLDRDNKELKAFNIRLEELHVIDVKFLYGCQAPTICFVYQDPQGRHVKTYEVSLREKEFNKGPWKQENVEAEASMVIAVPEPFGGAIIIGQESITYHNGDKYLAIAPPIIKQSTIVCHNRVDPNGSRYLLGDMEGRLFMLLLEKEEQMDGTVTLKDLRVELLGETSIAECLTYLDNGVVFVGSRLGDSQLVKLNVDSNEQGSYVVAMETFTNLGPIVDMCVVDLERQGQGQLVTCSGAFKEGSLRIIRNGIGIHEHASIDLPGIKGLWPLRSDPNRETYDTLVLSFVGQTRVLMLNGEEVEETELMGFVDDQQTFFCGNVAHQQLIQITSASVRLVSQEPKALVSEWKEPQAKNISVASCNSSQVVVAVGRALYYLQIHPQELRQISHTEMEHEVACLDITPLGDSNGLSPLCAIGLWTDISARILKLPSFELLHKEMLGGEIIPRSILMTTFESSHYLLCALGDGALFYFGLNIETGLLSDRKKVTLGTQPTVLRTFRSLSTTNVFACSDRPTVIYSSNHKLVFSNVNLKEVNYMCPLNSDGYPDSLALANNSTLTIGTIDEIQKLHIRTVPLYESPRKICYQEVSQCFGVLSSRIEVQDTSGGTTALRPSASTQALSSSVSSSKLFSSSTAPHETSFGEEVEVHNLLIIDQHTFEVLHAHQFLQNEYALSLVSCKLGKDPNTYFIVGTAMVYPEEAEPKQGRIVVFQYSDGKLQTVAEKEVKGAVYSMVEFNGKLLASINSTVRLYEWTTEKDVRTECNHYNNIMALYLKTKGDFILVGDLMRSVLLLAYKPMEGNFEEIARDFNPNWMSAVEILDDDNFLGAENAFNLFVCQKDSAATTDEERQHLQEVGLFHLGEFVNVFCHGSLVMQNLGETSTPTQGSVLFGTVNGMIGLVTSLSESWYNLLLDMQNRLNKVIKSVGKIEHSFWRSFHTERKTEPATGFIDGDLIESFLDISRPKMQEVVANLQYDDGSGMKREATADDLIKVVEELTRIH	soluble
